Data: patent US20260232827A1 (Zymeworks, published 2026)
Changes are numbered by the printed parent chain. Like-named read-outs stand apart in the source and are kept apart here.

T1: human NaPi2b (sodium-dependent phosphate transporter 2B) (human, UniProt O95436 1-690)
T1 sequence: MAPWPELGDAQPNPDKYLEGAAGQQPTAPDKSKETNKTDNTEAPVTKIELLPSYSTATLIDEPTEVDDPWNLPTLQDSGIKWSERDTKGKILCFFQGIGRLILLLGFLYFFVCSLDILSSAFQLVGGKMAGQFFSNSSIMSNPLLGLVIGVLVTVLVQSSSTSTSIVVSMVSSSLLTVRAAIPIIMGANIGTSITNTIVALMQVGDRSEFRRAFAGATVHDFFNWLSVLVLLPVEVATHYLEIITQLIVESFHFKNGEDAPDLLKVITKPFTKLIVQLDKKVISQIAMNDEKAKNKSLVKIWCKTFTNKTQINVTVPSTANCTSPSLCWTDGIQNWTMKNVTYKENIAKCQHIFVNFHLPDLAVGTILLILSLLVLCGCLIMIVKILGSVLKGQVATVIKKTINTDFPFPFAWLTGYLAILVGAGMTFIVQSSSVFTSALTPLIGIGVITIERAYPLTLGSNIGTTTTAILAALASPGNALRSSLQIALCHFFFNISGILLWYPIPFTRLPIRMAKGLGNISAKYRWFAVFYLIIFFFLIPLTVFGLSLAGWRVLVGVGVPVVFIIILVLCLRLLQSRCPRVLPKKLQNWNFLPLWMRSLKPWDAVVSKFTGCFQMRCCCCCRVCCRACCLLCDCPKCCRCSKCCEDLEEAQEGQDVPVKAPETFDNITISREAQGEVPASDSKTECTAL

T2: human sodium-dependent phosphate transporter 2B (NaPi2b) (human, UniProt O95436 1-690)
T2 sequence: T1 sequence

T3: human sodium-dependent phosphate transporter 2B (NaPi2b) (human, UniProt O95436 1-690)
T3 construct: UniProt ID is given as 095436 [sic]; also called hNaPi2b; Hu NaPi2b
T3 sequence: T1 sequence

B1: palivizumab (anti-RSV antibody, v21995) (antibody, human IgG1, kappa, V domains shown)
VH: QVTLRESGPALVKPTQTLTLTCTFSGFSLSTSGMSVGWIRQPPGKALEWLADIWWDDKKDYNPSLKSRLTISKDTSKNQVVLKVTNMDPADTATYYCARSMITNWYFDVWGAGTTVTVSS
VL: DIQMTQSPSTLSASVGDRVTITCKSQLSVGYMHWYQQKPGKAPKLLIYDTSKLASGVPSRFSGSGSGTEFTLTISSLQPDDFATYYCFQGSGYPFTFGGGTKLEIKR
B2: v29456-MT-GGFG-AM-Compound 136 DAR 8 (antibody, human IgG1, kappa)
heavy: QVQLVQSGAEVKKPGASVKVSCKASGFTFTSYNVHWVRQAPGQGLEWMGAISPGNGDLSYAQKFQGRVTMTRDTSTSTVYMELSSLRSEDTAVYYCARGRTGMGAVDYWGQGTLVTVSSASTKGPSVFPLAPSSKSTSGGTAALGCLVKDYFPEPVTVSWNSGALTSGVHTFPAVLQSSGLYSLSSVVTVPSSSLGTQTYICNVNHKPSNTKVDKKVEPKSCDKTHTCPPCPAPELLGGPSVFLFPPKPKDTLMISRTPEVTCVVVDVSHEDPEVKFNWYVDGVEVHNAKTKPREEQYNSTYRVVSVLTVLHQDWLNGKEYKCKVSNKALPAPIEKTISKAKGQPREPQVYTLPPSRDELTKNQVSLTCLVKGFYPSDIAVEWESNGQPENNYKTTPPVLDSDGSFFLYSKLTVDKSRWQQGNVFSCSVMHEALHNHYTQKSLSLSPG
light: DVQMTQSPSSLSASVGDRVTITCRASQDVYSYLNWYQQKPGKAVKLLIYYTSRLQSGVPSRFSGSGSGTDYTLTISSLQPEDFATYYCQQYNIFPWTFGQGTKLEIKRTVAAPSVFIFPPSDEQLKSGTASVVCLLNNFYPREAKVQWKVDNALQSGNSQESVTEQDSKDSTYSLSSTLTLSKADYEKHKVYACEVTHQGLSSPVTKSFNRGEC
modifications: drug-linker MT-GGFG-AM-Compound 136 on cysteine thiols after TCEP reduction, positions not given; DAR 8 for the whole antibody
B3: v29456-MT-GGFG-AM-Compound 139 DAR 8 (antibody, human IgG1, kappa)
heavy: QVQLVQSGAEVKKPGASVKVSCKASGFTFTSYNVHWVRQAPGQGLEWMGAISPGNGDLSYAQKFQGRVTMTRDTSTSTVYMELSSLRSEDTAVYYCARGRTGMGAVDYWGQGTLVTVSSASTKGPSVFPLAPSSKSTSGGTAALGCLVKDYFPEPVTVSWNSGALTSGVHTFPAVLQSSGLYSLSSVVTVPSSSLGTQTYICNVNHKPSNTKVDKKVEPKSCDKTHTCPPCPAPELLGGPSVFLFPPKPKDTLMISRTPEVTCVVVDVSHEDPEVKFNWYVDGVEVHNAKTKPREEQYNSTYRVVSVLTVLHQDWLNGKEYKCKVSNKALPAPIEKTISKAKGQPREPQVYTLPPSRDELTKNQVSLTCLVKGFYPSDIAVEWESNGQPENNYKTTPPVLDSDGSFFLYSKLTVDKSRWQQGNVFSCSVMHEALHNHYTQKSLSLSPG
light: B2 light
modifications: drug-linker MT-GGFG-AM-Compound 139 on cysteine thiols after TCEP reduction, positions not given; DAR 8 for the whole antibody
B4: v29456-MT-GGFG-Compound 140 DAR 8 (antibody, human IgG1, kappa)
heavy: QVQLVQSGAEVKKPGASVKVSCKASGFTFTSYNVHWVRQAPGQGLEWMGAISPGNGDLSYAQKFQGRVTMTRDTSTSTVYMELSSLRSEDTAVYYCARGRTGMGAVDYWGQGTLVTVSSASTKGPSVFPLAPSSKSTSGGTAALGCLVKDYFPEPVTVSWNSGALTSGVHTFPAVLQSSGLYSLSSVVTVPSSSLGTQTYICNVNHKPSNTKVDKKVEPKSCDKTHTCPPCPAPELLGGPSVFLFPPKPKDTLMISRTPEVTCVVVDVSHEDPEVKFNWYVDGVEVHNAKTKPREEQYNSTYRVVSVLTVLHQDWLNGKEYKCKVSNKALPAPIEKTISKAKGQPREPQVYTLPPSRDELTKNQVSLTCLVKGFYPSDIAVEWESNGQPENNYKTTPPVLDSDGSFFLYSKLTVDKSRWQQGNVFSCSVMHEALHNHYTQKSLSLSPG
light: B2 light
modifications: drug-linker MT-GGFG-Compound 140 on cysteine thiols after TCEP reduction, positions not given; DAR 8 for the whole antibody
B5: v29456-MT-GGFG-AM-Compound 129 DAR 8 (antibody, human IgG1, kappa)
heavy: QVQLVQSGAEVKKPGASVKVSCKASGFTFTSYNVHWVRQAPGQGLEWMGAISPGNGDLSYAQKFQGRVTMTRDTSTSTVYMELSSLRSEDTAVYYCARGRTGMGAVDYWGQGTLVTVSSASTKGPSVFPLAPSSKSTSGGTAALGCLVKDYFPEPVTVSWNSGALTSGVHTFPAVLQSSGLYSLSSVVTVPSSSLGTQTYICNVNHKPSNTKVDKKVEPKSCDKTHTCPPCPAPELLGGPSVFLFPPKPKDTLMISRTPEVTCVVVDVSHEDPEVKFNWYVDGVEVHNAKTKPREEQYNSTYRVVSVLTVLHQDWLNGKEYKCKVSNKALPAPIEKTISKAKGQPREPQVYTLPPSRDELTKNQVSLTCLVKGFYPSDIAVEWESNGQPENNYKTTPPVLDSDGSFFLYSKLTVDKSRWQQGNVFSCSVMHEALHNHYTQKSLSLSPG
light: B2 light
modifications: drug-linker MT-GGFG-AM-Compound 129 on cysteine thiols after TCEP reduction, positions not given; DAR 8 for the whole antibody
B6: v29456-MT-GGFG-AM-Compound 141 DAR 8 (antibody, human IgG1, kappa)
heavy: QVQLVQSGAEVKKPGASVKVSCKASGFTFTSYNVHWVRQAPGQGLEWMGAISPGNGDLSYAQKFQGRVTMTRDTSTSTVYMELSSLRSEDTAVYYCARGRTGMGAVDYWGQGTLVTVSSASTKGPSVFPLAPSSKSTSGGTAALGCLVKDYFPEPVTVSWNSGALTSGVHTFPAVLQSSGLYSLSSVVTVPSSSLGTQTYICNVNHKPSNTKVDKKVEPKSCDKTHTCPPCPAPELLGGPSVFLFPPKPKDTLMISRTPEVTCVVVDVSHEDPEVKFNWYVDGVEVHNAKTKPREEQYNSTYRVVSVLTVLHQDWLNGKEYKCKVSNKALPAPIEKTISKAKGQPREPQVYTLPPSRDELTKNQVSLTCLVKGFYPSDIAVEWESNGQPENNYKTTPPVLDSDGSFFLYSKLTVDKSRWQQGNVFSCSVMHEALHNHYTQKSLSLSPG
light: B2 light
modifications: drug-linker MT-GGFG-AM-Compound 141 on cysteine thiols after TCEP reduction, positions not given; DAR 8 for the whole antibody
B7: v29456-MT-GGFG-Compound 148 DAR 8 (antibody, human IgG1, kappa)
heavy: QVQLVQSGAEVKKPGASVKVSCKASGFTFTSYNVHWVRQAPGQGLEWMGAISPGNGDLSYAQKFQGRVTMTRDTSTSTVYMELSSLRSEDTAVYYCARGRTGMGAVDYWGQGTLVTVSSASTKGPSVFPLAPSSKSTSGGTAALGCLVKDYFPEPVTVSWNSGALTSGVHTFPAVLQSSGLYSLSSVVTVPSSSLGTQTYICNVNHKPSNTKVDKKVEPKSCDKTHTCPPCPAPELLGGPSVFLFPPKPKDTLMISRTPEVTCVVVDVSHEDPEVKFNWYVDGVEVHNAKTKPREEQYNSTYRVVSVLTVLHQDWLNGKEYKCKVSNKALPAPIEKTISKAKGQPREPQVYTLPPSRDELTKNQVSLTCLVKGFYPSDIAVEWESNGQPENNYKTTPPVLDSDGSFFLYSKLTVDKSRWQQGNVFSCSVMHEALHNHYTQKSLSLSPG
light: B2 light
modifications: drug-linker MT-GGFG-Compound 148 on cysteine thiols after TCEP reduction, positions not given; DAR 8 for the whole antibody
B8: v29456-MC-GGFG-AM-DXd1 DAR 8 (antibody, human IgG1, kappa)
heavy: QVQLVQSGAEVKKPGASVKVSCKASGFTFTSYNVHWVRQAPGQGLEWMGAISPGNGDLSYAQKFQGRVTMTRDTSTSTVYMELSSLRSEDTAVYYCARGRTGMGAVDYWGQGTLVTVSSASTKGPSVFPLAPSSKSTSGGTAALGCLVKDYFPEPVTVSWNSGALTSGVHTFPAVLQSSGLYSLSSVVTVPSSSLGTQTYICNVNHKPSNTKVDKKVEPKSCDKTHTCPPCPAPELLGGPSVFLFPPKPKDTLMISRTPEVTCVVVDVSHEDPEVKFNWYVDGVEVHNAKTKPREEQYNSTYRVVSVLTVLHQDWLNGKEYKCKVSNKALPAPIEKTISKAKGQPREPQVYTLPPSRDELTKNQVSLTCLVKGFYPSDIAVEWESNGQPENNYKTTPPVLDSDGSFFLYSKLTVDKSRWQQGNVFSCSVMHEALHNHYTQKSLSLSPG
light: B2 light
modifications: drug-linker MC-GGFG-AM-DXd1 on cysteine thiols after TCEP reduction, positions not given; DAR 8 for the whole antibody
B9: v29456-MC-GGFG-AM-Compound 139 DAR 3.4 (antibody, human IgG1, kappa)
heavy: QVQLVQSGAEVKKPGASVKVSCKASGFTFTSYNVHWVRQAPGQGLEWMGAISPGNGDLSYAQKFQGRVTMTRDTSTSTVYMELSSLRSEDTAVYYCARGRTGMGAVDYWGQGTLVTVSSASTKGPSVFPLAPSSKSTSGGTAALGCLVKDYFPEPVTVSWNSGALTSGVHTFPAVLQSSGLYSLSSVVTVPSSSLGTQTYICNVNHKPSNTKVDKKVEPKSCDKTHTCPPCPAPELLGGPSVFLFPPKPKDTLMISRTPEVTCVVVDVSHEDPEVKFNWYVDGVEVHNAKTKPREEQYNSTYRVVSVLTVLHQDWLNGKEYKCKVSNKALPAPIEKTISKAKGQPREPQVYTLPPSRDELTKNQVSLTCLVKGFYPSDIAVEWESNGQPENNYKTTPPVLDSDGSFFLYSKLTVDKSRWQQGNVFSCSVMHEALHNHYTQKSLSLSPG
light: B2 light
modifications: drug-linker MC-GGFG-AM-Compound 139 on cysteine thiols after TCEP reduction, positions not given; DAR 3.4 for the whole antibody
B10: v29456-MC-GGFG-Compound 141 DAR 3.4 (antibody, human IgG1, kappa)
heavy: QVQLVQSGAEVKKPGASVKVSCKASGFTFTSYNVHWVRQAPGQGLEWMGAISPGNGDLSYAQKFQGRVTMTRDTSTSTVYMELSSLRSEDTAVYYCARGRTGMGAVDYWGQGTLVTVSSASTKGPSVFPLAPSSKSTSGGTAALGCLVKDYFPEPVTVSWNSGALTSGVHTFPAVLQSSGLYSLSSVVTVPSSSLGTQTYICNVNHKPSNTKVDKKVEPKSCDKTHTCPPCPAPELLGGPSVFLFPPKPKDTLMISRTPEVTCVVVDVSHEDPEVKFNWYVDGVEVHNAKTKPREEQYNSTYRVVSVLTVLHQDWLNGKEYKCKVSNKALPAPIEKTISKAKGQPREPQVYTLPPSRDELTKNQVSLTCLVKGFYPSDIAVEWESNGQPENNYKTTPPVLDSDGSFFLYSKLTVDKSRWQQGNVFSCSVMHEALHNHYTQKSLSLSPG
light: B2 light
modifications: drug-linker MC-GGFG-Compound 141 on cysteine thiols after TCEP reduction, positions not given; DAR 3.4 for the whole antibody
B11: v29456-MC-GGFG-Compound 141 DAR 8 (antibody, human IgG1, kappa)
heavy: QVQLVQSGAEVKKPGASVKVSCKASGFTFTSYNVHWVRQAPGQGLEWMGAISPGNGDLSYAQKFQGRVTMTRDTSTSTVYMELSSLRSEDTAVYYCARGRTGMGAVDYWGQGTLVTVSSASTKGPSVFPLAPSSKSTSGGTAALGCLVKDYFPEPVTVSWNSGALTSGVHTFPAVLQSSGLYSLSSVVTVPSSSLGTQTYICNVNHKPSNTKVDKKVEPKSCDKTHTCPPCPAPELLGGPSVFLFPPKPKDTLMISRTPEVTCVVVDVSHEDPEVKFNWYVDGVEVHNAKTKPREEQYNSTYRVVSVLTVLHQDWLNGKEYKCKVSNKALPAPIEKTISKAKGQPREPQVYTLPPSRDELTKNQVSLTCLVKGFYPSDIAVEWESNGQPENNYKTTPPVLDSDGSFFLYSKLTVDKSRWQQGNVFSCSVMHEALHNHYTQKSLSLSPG
light: B2 light
modifications: drug-linker MC-GGFG-Compound 141 on cysteine thiols after TCEP reduction, positions not given; DAR 8.0 for the whole antibody
B12: v29455 (H2L2) (antibody, human IgG1, kappa, V domains shown)
VH: QVQLVQSGAEVKKPGASVKVSCKASGFTFTSYNVHWVRQAPGQGLEWIAAISPGNGDLSYAQKFQGRVTMTVDTSTSTVYMELSSLRSEDTAVYYCARGRTGMGAVDYWGQGTLVTVSS
VL: DVQMTQSPSSLSASVGDRVTITCRASQDVYSYLNWYQQKPGKAVKLLIYYTSRLQSGVPSRFSGSGSGTDYTLTISSLQPEDFATYYCQQYNIFPWTFGQGTKLEIKR
notes: Humanized IgG1/kappa
B13: v29449 (H4L3) (antibody, human IgG1, kappa, V domains shown)
VH: B12 VH with V20M, V68A, M70L, T74R, V79A
VL: B12 VL with F83I
notes: Humanized IgG1/kappa
B14: v29450 (H3L3) (antibody, human IgG1, kappa, V domains shown)
VH: B12 VH with V20M, V68A, M70L, V79A
VL: B12 VL with F83I
notes: Humanized IgG1/kappa
B15: v29451 (H2L3) (antibody, human IgG1, kappa, V domains shown)
VH: B12 VH
VL: B12 VL with F83I
notes: Humanized IgG1/kappa
B16: v29453 (H4L2) (antibody, human IgG1, kappa, V domains shown)
VH: B12 VH with V20M, V68A, M70L, T74R, V79A
VL: B12 VL
notes: Humanized IgG1/kappa; clones CL_#21506 and CL_#21508
B17: v29454 (H3L2) (antibody, human IgG1, kappa, V domains shown)
VH: B12 VH with V20M, V68A, M70L, V79A
VL: B12 VL
notes: Humanized IgG1/kappa
B18: v29457 (H4L1) (antibody, human IgG1, kappa, V domains shown)
VH: B12 VH with V20M, V68A, M70L, T74R, V79A
VL: B12 VL with V2I, V44P, Y71F
notes: Humanized IgG1/kappa; clones CL_#21506 and CL_#21507
B19: v29458 (H3L1) (antibody, human IgG1, kappa, V domains shown)
VH: B12 VH with V20M, V68A, M70L, V79A
VL: B12 VL with V2I, V44P, Y71F
notes: Humanized IgG1/kappa
B20: v29459 (H2L1) (antibody, human IgG1, kappa, V domains shown)
VH: B12 VH
VL: B12 VL with V2I, V44P, Y71F
notes: Humanized IgG1/kappa
B21: v29460 (H1L1) (antibody, human IgG1, kappa, V domains shown)
VH: B12 VH with I48M, A49G, V72R
VL: B12 VL with V2I, V44P, Y71F
notes: Humanized IgG1/kappa
B22: v18993 (lifastuzumab)-DL2 (antibody, human IgG1, kappa)
heavy 1: GEVQLVESGGGLVQPGGSLRLSCAASGFSFSDFAMSWVRQAPGKGLEWVATIGRVAFHTYYPDSMKGRFTISRDNSKNTLYLQMNSLRAEDTAVYYCARHRGFDVGHFDFWGQGTLVTVSSASTKGPSVFPLAPSSKSTSGGTAALGCLVKDYFPEPVTVSWNSGALTSGVHTFPAVLQSSGLYSLSSVVTVPSSSLGTQTYICNVNHKPSNTKVDKKVEPKSCDKTHTCPPCPAPELLGGPSVFLFPPKPKDTLMISRTPEVTCVVVDVSHEDPEVKFNWYVDGVEVHNAKTKPREEQYNSTYRVVSVLTVLHQDWLNGKEYKCKVSNKALPAPIEKTISKAKGQPREPQVYVYPPSRDELTKNQVSLTCLVKGFYPSDIAVEWESNGQPENNYKTTPPVLDSDGSFALVSKLTVDKSRWQQGNVFSCSVMHEALHNHYTQKSLSLSPG
heavy 2: not shown
light: GDIQMTQSPSSLSASVGDRVTITCRSSETLVHSSGNTYLEWYQQKPGKAPKLLIYRVSNRFSGVPSRFSGSGSGTDFTLTISSLQPEDFATYYCFQGSFNPLTFGQGTKVEIKRTVAAPSVFIFPPSDEQLKSGTASVVCLLNNFYPREAKVQWKVDNALQSGNSQESVTEQDSKDSTYSLSSTLTLSKADYEKHKVYACEVTHQGLSSPVTKSFNRGEC
modifications: as above; maleimide functionalized auristatin drug linker (DL2); sites and DAR not stated
notes: also called lifastuzumab-DL2 ADC

Assays:
[1] = target: T1, human NaPi2b (sodium-dependent …); assay: cell-based or functional assay
[2] = target: T2, human sodium-dependent phosphate …; assay: cell-based or functional assay
[3] = target: T2, human sodium-dependent phosphate …; assay: cell-based or functional assay; remark: listed apart in the source
[4] = target: T2, human sodium-dependent phosphate …; assay: cell-based or functional assay; remark: listed apart in the source
[5] = target: T2, human sodium-dependent phosphate …; assay: cell-based or functional assay; remark: listed apart in the source
[6] = target: T3, human sodium-dependent phosphate …; assay: flow cytometry, IGROV-1 cells (endogenous NaPi2b); design: unit not given here
[7] = target: T3, human sodium-dependent phosphate …; assay: flow cytometry, IGROV-1 cells (endogenous NaPi2b); apparent Kd
Method: Briefly, cells were seeded at 50,000 cells/well in conical-bottom 96-well plates and treated with test antibody for 24 hours at 4° C. to prevent internalization. […] Following incubation and washing, fluorescence was detected by flow cytometry on a BD LSRFortessa™ Cell Analyzer (BD Biosciences, Franklin Lake, NJ) with 1,000 minimum events collected per well.

| Binder | EC50, in vitro cytotoxicity, 2D monolayer, HCC-78 [2] | Bmax [6] | Kd [7] | further results |
| --- | --- | --- | --- | --- |
| B1 | – | – | – | Internalized Fluorescence Fold-Over Untreated, H441, 4 h, 2.5 nM [1]: 1 fold; Internalized Fluorescence Fold-Over Untreated, H441, 24 h, 2.5 nM [1]: 1.1 fold; Internalized Fluorescence Fold-Over Untreated, HCC-78, 4 h, 2.5 nM [1]: 1 fold; Internalized Fluorescence Fold-Over Untreated, HCC-78, 24 h, 2.5 nM [1]: 1.1 fold; Internalized Fluorescence Fold-Over Untreated, IGROV-1, 4 h, 2.5 nM [1]: 0.9 fold; Internalized Fluorescence Fold-Over Untreated, IGROV-1, 24 h, 2.5 nM [1]: 1 fold |
| B2 | 0.43 nM | – | – | EC50, in vitro cytotoxicity, 2D monolayer, IGROV-1 [2]: 4.48 nM |
| B3 | 0.65 nM | – | – | EC50, in vitro cytotoxicity, 2D monolayer, IGROV-1 [2]: 1.71 nM; EC50, in vitro cytotoxicity, HCC-78 spheroids [3]: 0.82 nM; EC50, in vitro cytotoxicity, IGROV-1 spheroids [3]: 0.37 nM |
| B4 | 0.6 nM | – | – | EC50, in vitro cytotoxicity, HCC-78 spheroids [3]: 0.19 nM; EC50, in vitro cytotoxicity, IGROV-1 spheroids [3]: 0.25 nM |
| B5 | 0.42 nM | – | – | EC50, in vitro cytotoxicity, 2D monolayer, IGROV-1 [2]: 1.11 nM |
| B6 | 0.26 nM | – | – | EC50, in vitro cytotoxicity, 2D monolayer, IGROV-1 [2]: 1.56 nM; EC50, in vitro cytotoxicity, HCC-78 spheroids [3]: 0.33 nM; EC50, in vitro cytotoxicity, IGROV-1 spheroids [3]: 0.21 nM |
| B7 | 1.98 nM | – | – | – |
| B8 | 0.55 nM | – | – | EC50, in vitro cytotoxicity, 2D monolayer, IGROV-1 [2]: 0.45 nM; EC50, in vitro cytotoxicity, HCC-78 spheroids [3]: 0.6 nM; EC50, in vitro cytotoxicity, IGROV-1 spheroids [3]: 0.27 nM |
| B9 | – | – | – | EC50, in vitro cytotoxicity, 2D monolayer, IGROV-1 [4]: 5.46 nM; EC50, in vitro cytotoxicity, IGROV-1 spheroids [5]: 0.88 nM; EC50, in vitro cytotoxicity, TOV-21G:HDFa (1:1) spheroids [5]: 0.76 nM |
| B10 | – | – | – | EC50, in vitro cytotoxicity, 2D monolayer, IGROV-1 [4]: 16.4 nM; EC50, in vitro cytotoxicity, IGROV-1 spheroids [5]: 1.31 nM; EC50, in vitro cytotoxicity, TOV-21G:HDFa (1:1) spheroids [5]: 0.99 nM |
| B11 | – | – | – | EC50, in vitro cytotoxicity, 2D monolayer, IGROV-1 [4]: 3.01 nM; EC50, in vitro cytotoxicity, 2D monolayer, TOV-21G [4]: 0.93 nM; EC50, in vitro cytotoxicity, IGROV-1 spheroids [5]: 0.44 nM; EC50, in vitro cytotoxicity, TOV-21G:HDFa (1:1) spheroids [5]: 0.9 nM |
| B12 | – | 41900 | 1.18 nM | – |
| B13 | – | 44500 | 0.79 nM | – |
| B14 | – | 43800 | 0.96 nM | – |
| B15 | – | 46200 | 1.49 nM | – |
| B16 | – | 44500 | 0.82 nM | – |
| B17 | – | 42300 | 0.92 nM | – |
| B18 | – | 44500 | 1.73 nM | – |
| B19 | – | 40800 | 1.39 nM | – |
| B20 | – | 40900 | 1.61 nM | – |
| B21 | – | 40100 | 1.67 nM | – |
| B22 | – | 39800 | 3 nM | – |
